B1: recombinant human TNFβ (Peprotech, Cat. No. 300-01B) (ligand, UniProt P01374 35-205, looked up)
chain: LPGVGLTPSAAQTARQHPKMHLAHSTLKPAAHLIGDPSKQNSLLWRANTDRAFLQDGFSLSNNSLLVPTSGIYFVYSQVVFSGKAYSPKATSSPLYLAHEVQLFSSQYPFHVPLLSSQKMVYPGLQEPWLHSMYHGAAFQLTQGDQLSTHTDGIPHLVLSPSTVFFGAFAL
B3: humanized scFv 16-22-H05-sc02 (structural graft, STR) (scFv)
scFv: MDIQMTQSPSSLSASVGDRVTIKCQASQSIFSGLAWYQQKPGKAPKLLIYGASKLASGVPSRFSGSGSGTEFTLTISGLQPADFATYYCQSYYYSSSSSDGSYAFGGGTKLTVLGGGGGSGGGGSGGGGSGGGGSEVQLVESGGGLVQPGGSLRLSCKASGIDFNNYGIGWVRQAPGKGLEWITYIYPGFAITNFANSVKGRFTISSDNSKNTVYLQMNSLRAEDTAVYYCARDPVYATSSGYFDLWGQGTLVTVSS
notes: also called 16-22-H5-sc02; 16-22-H04-sc02 [sic]
B5: humanized scFv 16-22-H05-sc04 (CDR grafted light chain, structural grafted heavy chain, CDR/STR) (scFv)
scFv: MDIQMTQSPSSLSASVGDRVTITCQASQSIFSGLAWYQQKPGKAPKLLIYGASKLASGVPSRFSGSGSGTEFTLTISGLQPADFATYYCQSYYYSSSSSDGSYAFGGGTKLTVLGGGGGSGGGGSGGGGSGGGGSEVQLVESGGGLVQPGGSLRLSCKASGIDFNNYGIGWVRQAPGKGLEWITYIYPGFAITNFANSVKGRFTISSDNSKNTVYLQMNSLRAEDTAVYYCARDPVYATSSGYFDLWGQGTLVTVSS
notes: also called 16-22-05-sc04

Some results are limits rather than exact numbers.

The target of assay [1] is B5. Kind of assay: competition ELISA, coated scFv, biotinylated TNFα 75 ng/ml, unlabeled TNFβ varied. As to the method: (§1) For this purpose, the scFvs were coated on a 96-well Maxisorp ELISA plate at a concentration of 1 μg/ml. […] To control precision of the response, the dose-response curves were analyzed in duplicate.
In general terms: An ELISA detects its analyte on a solid surface through an enzyme-linked reagent.

Assay [2] has as its target B3. The assay is described as above. The method, then:
as §1

Assay [3] addresses B5. The assay is described as follows: competition ELISA, coated scFv, biotinylated TNFα, unlabeled TNFβ against unlabeled TNFα. The method, then:
as §1

Assay [4] addresses B3. The description is as above. The method, then: as §1
In assay [5] the target is T1, recombinant human TNFα (Peprotech, Cat. No. 300-01) (human, UniProt P01375 77-233). Kind of assay: cell-based or functional assay.
The target of assay [6] is T1, recombinant human TNFα (Peprotech, Cat. …). The assay is described as follows: SPR as in Example 2 under 2.1.1.
The target of assay [7] is T2, recombinant Cynomolgus monkey TNFα (Sino Biological, Cat. No. 90018-CNAE) (Cynomolgus monkey (Macaca fascicularis), UniProt P79337 77-233).
T2 construct: also called Cynomolgus TNFα; cyno TNF
Kind of assay: SPR (MASS-1), cyno TNFα immobilized, scFv 45 to 1.4 nM. The method, then: (§2) In a second step, for the best performing scFvs, Single Injection Cycle Kinetics (SiCK) were measured from a single injection cycle by simultaneously injecting six analyte samples at different concentrations into each of the eight parallel channels in the MASS-1 system. […] The apparent dissociation (k_d) and association (k_a) rate constants and the apparent dissociation equilibrium constant (K_D) were calculated with the MASS-1 analysis software (Analyzer, Sierra Sensors) using one-to-one Langmuir binding model and quality of the fits was monitored based on Chi^2, which is a measure for the quality of the curve fitting. The smaller the value for the Chi^2 the more accurate is the fitting to the one-to-one Langmuir binding model. For affinity screenings, results were deemed valid if the Chi^2 was below 10 for the concentration analyzed. In cases where several scFv concentrations were analyzed, results were deemed valid if the average Chi^2 over all the concentrations tested was below 10.

Assay [8] has as its target T1, recombinant human TNFα (Peprotech, Cat. …). Kind of assay: inhibition ELISA, blocking of TNFα binding to coated TNFRI-Fc; reference infliximab. The text has this:
(§3) For the first inhibition ELISA, the extracellular domain of TNFRI fused to the Fc region of human IgG (R&D Systems, Cat. No. 372-RI) was coated on a 96-well Maxisorp ELISA at a concentration of […]. […] All subsequent steps were identical for both assays.

Assay [9] has the same target. Kind of assay: inhibition ELISA, blocking of TNFα binding to coated TNFRII-Fc; reference infliximab.
Assay [10] deals with T3, Rhesus monkey TNFα (R&D Systems, Cat. No. 1070-RM-025/CF) (Rhesus monkey (Macaca mulatta), UniProt P48094 77-233).
T3 construct: also called Rhesus TNFα; rhesus TNF
The assay is described as follows: SPR, TNFα immobilized, scFv injected. The method, then: as §2
On the technique in general: Surface plasmon resonance follows binding to a sensor surface in real time, without labels.

Assay [11] addresses T2, recombinant Cynomolgus monkey TNFα …. The assay is described as follows: SPR, TNFα immobilized, scFv injected. The method, then:
as §2

Assay [12] has as its target B1. The assay is described as follows: competition ELISA, coated scFv, biotinylated TNFα, unlabeled TNFβ. The method, then: as §1
Assay [13] addresses T1, recombinant human TNFα (Peprotech, Cat. …). The assay is described as follows: inhibition ELISA, blocking of TNFα binding to coated TNFRI-Fc.
Source text: as §3

Assay [14] deals with T3, Rhesus monkey TNFα (R&D Systems, Cat. …). The assay is described as follows: cell-based or functional assay.
The target in assay [15] is T1, recombinant human TNFα (Peprotech, Cat. …). The assay is described as follows: cell-based or functional assay. This is another data set of the same source.
Assay [16] deals with T2, recombinant Cynomolgus monkey TNFα …. Kind of assay: cell-based or functional assay.
Assay [17] has as its target T3, Rhesus monkey TNFα (R&D Systems, Cat. …). The assay is described as follows: SPR (MASS-1), Rhesus TNFα immobilized, scFv 45 to 1.4 nM. As to the method: as §2
Assay [18] has as its target T1, recombinant human TNFα (Peprotech, Cat. …). Kind of assay: inhibition ELISA, blocking of TNFα binding to coated TNFRII-Fc.
Source text: as §3

Assay [19] shares this target. Kind of assay: SPR (MASS-1), TNFα immobilized, scFv 45 to 1.4 nM. The method, then:
In a second step, for the best performing scFvs, Single Injection Cycle Kinetics (SiCK) were measured from a single injection cycle by simultaneously injecting six analyte samples at different concentrations into each of the eight parallel channels in the MASS-1 system. […] The apparent dissociation (k_d) and association (k_a) rate constants and the apparent dissociation equilibrium constant (K_D) were calculated with the MASS-1 analysis software (Analyzer, Sierra Sensors) using one-to-one Langmuir binding model and quality of the fits was monitored based on Chi^2, which is a measure for the quality of the curve fitting.

T3 sequence (P48094 77-233 limits assumed): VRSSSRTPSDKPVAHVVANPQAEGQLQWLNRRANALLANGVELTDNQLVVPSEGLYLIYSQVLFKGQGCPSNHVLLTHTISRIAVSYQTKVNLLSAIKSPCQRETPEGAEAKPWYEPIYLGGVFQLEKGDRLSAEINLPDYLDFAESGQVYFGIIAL
T1 sequence (P01375 77-233 limits assumed): as the sequence (P48094 77-233 limits assumed) above, with T44R, N72T, L138R counted along it
T2 sequence (P79337 77-233 limits assumed): as the sequence (P48094 77-233 limits assumed) above, with L37V counted along it

For orientation: IC50 means the point on the concentration scale where inhibition reaches its midpoint. Regarding B1, the 50% inhibitory concentration (IC50) in assay [1] and in assay [2] was greater than 1250 µg/mL throughout. Moreover, the “Target selectivity, rel. IC50 of TNFβ vs TNFα” value in assay [3] and in [4] was greater than 10000 fold each time.

B2: humanized IgG of clone 16-22-H05 (antibody, V domains shown)
VH: EVQLVESGGGLVQPGGSLRLSCKASGIDFNNYGIGWVRQAPGKGLEWITYIYPGFAITNFANSVKGRFTISSDNSKNTVYLQMNSLRAEDTAVYYCARDPVYATSSGYFDLWGQGTLVTVSS
VL: DIQMTQSPSSLSASVGDRVTIKCQASQSIFSGLAWYQQKPGKAPKLLIYGASKLASGVPSRFSGSGSGTEFTLTISGLQPADFATYYCQSYYYSSSSSDGSYAFGGGTKLTVLG
notes: Transiently expressed in CHO S cells and purified on Protein A; also called 16-22-H5-IgG
In general, Kd refers to the constant that tells how readily two partners part at equilibrium. Broadly, the koff is the first-order rate constant of dissociation. Broadly, the kon is the rate constant with which the complex forms. Turning to B2, in assay [5], the “Potency IC50 (nM), L929 assay” value was found to be 0.02 nM. Further, in [6], the Kd stood at 0.0417 nM, the koff is 7.92e-05 s⁻¹ and the kon is 1.9e+06 M⁻¹ s⁻¹.

B3: the Kd in assay [7] was 0.2 nM; in assay [17], 0.23 nM; in [19], 0.045 nM. In addition, the koff in assay [7] is 9.6e-05 s⁻¹; in assay [17], 0.00015 s⁻¹; in assay [19], 4.3e-05 s⁻¹. Besides, the kon in assay [7] was determined as 490000 M⁻¹ s⁻¹; in [17], 670000 M⁻¹ s⁻¹; in [19], 960000 M⁻¹ s⁻¹. Moreover, the “rel. IC50 (IC50 infliximab / IC50 scFv, ng/mL)” value in [8] stood at 3.5 fold; in assay [9], 5.7 fold. The “rel. IC90 (IC90 infliximab / IC90 scFv, ng/mL)” value was determined as 2.4 fold in [8] and 3.3 fold in assay [9]. Also, the “fold difference in affinity against human TNFα” value in assay [10] and in assay [11] was roughly 5 fold throughout. Further, in [12], the binding result is “no binding (tested: 1250 µg/ml)”. The IC50 in assay [13] was 0.0139 µg/mL; in assay [18] it was 0.02 µg/mL. Also, the “Species-specificity IC50 [ng/ml], L929 assay, Rhesus TNFα” value in assay [14] was 3 ng/mL. Further, the “Potency in L929 assay, rel. IC50 (IC50 infliximab / IC50 scFv, ng/ml)” value in assay [15] is 13.1 fold. For the same molecule, the “Potency in L929 assay, rel. IC90 (IC90 infliximab / IC90 scFv, ng/ml)” value in [15] came to 12.6 fold. The “Species-specificity IC50 [ng/ml], L929 assay, human TNFα” value in [15] is 0.6 ng/mL. In assay [16], the “Species-specificity IC50 [ng/ml], L929 assay, cyno TNFα” value is 2.9 ng/mL.

B4: 16-22-H5-scFv (scFv format of Examples 3 to 7) (scFv)
chain: MDIQMTQSPSSLSASVGDRVTIKCQASQSIFSGLAWYQQKPGKAPKLLIYGASKLASGVPSRFSGSGSGTEFTLTISGLQPADFATYYCQSYYYSSSSSDGSYAFGGGTKLTVLGGGGGSGGGGSGGGGSGGGGSEVQLVESGGGLVQPGGSLRLSCKASGIDFNNYGIGWVRQAPGKGLEWITYIYPGFAITNFANSVKGRFTISSDNSKNTVYLQMNSLRAEDTAVYYCARDPVYATSSGYFDLWGQGTLVTVSS
For B4, the “Potency IC50 (nM), L929 assay” value in assay [5] was found to be 0.03 nM. In [6], the Kd came out at 0.0379 nM, the koff was 3.38e-05 s⁻¹ and the kon came out at 893000 M⁻¹ s⁻¹.

As to B5, in [8], the “rel. IC50 (IC50 infliximab / IC50 scFv, ng/mL)” value was 2.8 fold and the “rel. IC90 (IC90 infliximab / IC90 scFv, ng/mL)” value was found to be 2.1 fold. In assay [9], the “rel. IC50 (IC50 infliximab / IC50 scFv, ng/mL)” value stood at 3.5 fold and the “rel. IC90 (IC90 infliximab / IC90 scFv, ng/mL)” value was 1.5 fold. Besides, the binding result in assay [12] is listed as “no binding (tested: 1250 µg/ml)”. For the same molecule, in assay [13], the IC50 came out at 0.0177 µg/mL. Also, the “Species-specificity IC50 [ng/ml], L929 assay, Rhesus TNFα” value in assay [14] worked out at 2.9 ng/mL. Besides, in assay [15], the “Potency in L929 assay, rel. IC50 (IC50 infliximab / IC50 scFv, ng/ml)” value was 14.6 fold; the “Potency in L929 assay, rel. IC90 (IC90 infliximab / IC90 scFv, ng/ml)” value was 13.1 fold; the “Species-specificity IC50 [ng/ml], L929 assay, human TNFα” value is 0.5 ng/mL. Further, the “Species-specificity IC50 [ng/ml], L929 assay, cyno TNFα” value in assay [16] is 3.5 ng/mL. The IC50 in [18] worked out at 0.0326 µg/mL. Moreover, in assay [19], the Kd came to 0.11 nM, the koff was 7.1e-05 s⁻¹ and the kon is 680000 M⁻¹ s⁻¹.

B6: humanized single-chain diabody of clone 16-22-H05 (other)
chain: MDIQMTQSPSSLSASVGDRVTIKCQASQSIFSGLAWYQQKPGKAPKLLIYGASKLASGVPSRFSGSGSGTEFTLTISGLQPADFATYYCQSYYYSSSSSDGSYAFGGGTKLTVLGGGGGSEVQLVESGGGLVQPGGSLRLSCKASGIDFNNYGIGWVRQAPGKGLEWITYIYPGFAITNFANSVKGRFTISSDNSKNTVYLQMNSLRAEDTAVYYCARDPVYATSSGYFDLWGQGTLVTVSSGGGGSGGGGSGGGGSGGGGSDIQMTQSPSSLSASVGDRVTIKCQASQSIFSGLAWYQQKPGKAPKLLIYGASKLASGVPSRFSGSGSGTEFTLTISGLQPADFATYYCQSYYYSSSSSDGSYAFGGGTKLTVLGGGGGSEVQLVESGGGLVQPGGSLRLSCKASGIDFNNYGIGWVRQAPGKGLEWITYIYPGFAITNFANSVKGRFTISSDNSKNTVYLQMNSLRAEDTAVYYCARDPVYATSSGYFDLWGQGTLVTVSS
notes: Single-chain diabody VLA-L1-VHB-L2-VLB-L3-VHA, bivalent for TNFα; L1 and L3 are G4S, L2 is (G4S)4; also called 16-22-H5-scDb; scDb
With B6, the “Potency IC50 (nM), L929 assay” value in [5] was 0.01 nM. Moreover, in assay [6], the Kd came out at 0.0215 nM, the koff was found to be 2.02e-05 s⁻¹ and the on-rate (kon) is 940000 M⁻¹ s⁻¹.

For the origin of these results see patent publication US12209122.
